Measured values taken from US9878046B2, “Adverse side-effects associated with administration of an anti-hyaluronan agent and methods for ameliorating or preventing the side-effects” (Halozyme, Inc., priority 2010, dated 2018).
Values joined by “and” are separate entries in the source; they are usually repeats but may differ in a detail not shown here. Equal values may be shown once. “Also recorded” adds a separate entry of the source.

What was measured:
[1] = tested on: 46 different cytokines, chemokines, acute-phase reactants, and other plasma inflammatory biomarkers; assay: Human inflammation multi-analyte profile (MAP) of patient plasma; format: in vivo; settings: first two patients, single IV dose 0.05 mg/kg
Method: The patient plasma samples also were analyzed using a human inflammation multi-analyte profile (MAP) of 46 different cytokines, chemokines, acute-phase reactants, and other plasma inflammatory biomarkers.

tissue HA (hyaluronan) = assay: Histochemical HA staining of skeletal muscle and skin biopsies; format: in vivo, beagle dog
Method: Twenty-four hours post-dose (Day 60), skeletal muscle biopsies were taken from each of the three treated dogs and also from an untreated control beagle dog. The medial semitendinosis/medial membranosus muscle(s) were targeted for biopsies. The area of the biopsy was shaved using electric clippers and scrubbed using either Chlorhexidine or Povidone-Iodine solutions. Bupivacaine or Lidocaine (2-3 mg/kg) was injected subcutaneously (SC) in the area of the biopsy for local analgesia. The muscle biopsy was collected using a 2-mm-diameter biopsy needle. A gauze sponge was applied with slight pressure to stop any bleeding. Metacam (meloxicam) 0.2 mg/kg was injected SC to control pain. Biopsy samples were placed in Eppendorf tubes or equivalent with approximately 200 μL 10% neutral-buffered formalin (NBF).
Biopsied tissue samples were stained for tissue HA using a highly specific histochemical staining method. […] The cell nuclei were counterstained with DAPI (4′,6-diamidino-2-phenylindole) reagent. Micrographs were then captured using a Zeiss Microscope (Thornwood, N.Y.) coupled with the Spot imaging program (Diagnostic Instruments, Inc).
The medial semitendinosis/medial membranosus muscle(s) were targeted for biopsies. The area of the biopsy was shaved using electric clippers and scrubbed using either Chlorhexidine or Povidone-Iodine solutions. […]

[2] = tested on: soluble plasma hyaluronan; assay: Soluble plasma hyaluronan ELISA in PC3 tumor-bearing mice; format: in vivo; settings: PEGPH20 4.5 mg/kg alone or + dexamethasone (high or low dose)
Method: Plasma samples were additionally used to measure soluble plasma hyaluronan in the control group and each of the treatment groups (R&D Systems Catalog DY3614; ELISA assay). In the vehicle control group, the plasma hyaluronan levels ranged from 800,000 to 900,000 ng/mL.

pericellular hyaluronan = assay: Hyaluronan staining of PC3 tumor sections; format: in vivo, human (xenograft in athymic male nude mice); settings: Day 14, dexamethasone low or high dose, PEGPH20 4.5 mg/kg, or both
Method: (§1) Tumor tissues from the two satellite mice from all 6 treatment groups in Example 9A.1 above, were harvested by tissue biopsy on Day 14 and stained for the presence of hyaluronan. Tumor biopsies were fixed in 10% NBF for 48 hours, embedded in paraffin, and sectioned. Samples were probed for hyaluronan using a biotinylated HA-binding protein (HABP), then probed with FITC-labeled streptavidin for detection. The cell nuclei were counterstained with DAPI (4′,6-diamidino-2-phenylindole) reagent. Micrographs were then captured using a Zeiss Microscope (Thornwood, N.Y.) coupled with the Spot imaging program (Diagnostic Instruments, Inc).
(§2) Hyaluronan expression in the sections was evaluated by the level of green fluorescent intensity in the sections.

[3] = tested on: soluble plasma hyaluronan; assay: Soluble plasma hyaluronan ELISA in BxPC3 model mice; format: in vivo; settings: PEGPH20 4.5 mg/kg alone or + dexamethasone (high or low dose)
Method: Plasma samples were additionally used to measure soluble plasma hyaluronan in the control group and each of the treatment groups (R&D Systems Catalog #DY3614; ELISA assay). In the vehicle control group, the plasma hyaluronan levels ranged from 2,000 to 4,000 ng/mL.

hyaluronan = assay: Hyaluronan staining of BxPC3 tumor sections; format: in vivo, human (xenograft in athymic female nude mice); settings: Day 18, dexamethasone low or high dose, PEGPH20 4.5 mg/kg, or both
Method: as §1, with “9B.1” for “9A.1”, “18” for “14”
as §2

[4] = tested on: pericellular and stromal HA; assay: Histochemical detection of HA in patient tumor biopsies; format: in vivo, human; settings: colon cancer patient, liver metastasis, 1.6 μg/kg twice weekly + dexamethasone, post vs archived pre biopsy
Method: An archived pre-dose biopsy (pre biopsy) obtained in 2007 (3.5 years prior to the PEGPH20 study) and a post-PEGPH20 Cycle 1 (3 days after the last dose) biospsy (Post biopsy) were obtained from a colon cancer patient with liver metastases. The patient post-treatment biopsy was obtained after one cycle of PEGPH20 treatment at 1.6 μg/kg on a twice weekly schedule with dexamethasone co-treatment.
Briefly, the tumor biopsies were fixed in normal buffered formalin (NBF) and 5 μm sections cut and stained using a biotin labeled hyaluronan binding protein (HABP-bio) (Seikagaku, Japan). After washing to remove the primary reagent, a labeled secondary reagent was used. Nuclei were counter-stained using a DAPI (4′,6-diamidino-2-phenylindole) reagent. Micrographs were captured via a Nikon Eclipse TE2000U inverted fluorescent microscope coupled to a Insight FireWire digital camera (Diagnostic Instruments, Michigan) or ZEISS overhead scope (Carl Zeiss, Inc.) that has the same imaging system.

tumor regions = assay: Apparent diffusion coefficient MRI (ADC-MRI) of tumors; format: in vivo, human
Method: Scans were performed pre-treatment and post-treatment.
Apparent diffusion coefficient magnetic Resonance imaging (ADC-MRI) measures the volume of water that has moved across the cell membrane based upon a calculation derived from the pre- and post-treatment scans. ADC-MRI scans were completed for a total of 10 of the 14 patients in the study described in Example 6 and 4 of the 5 patients in the study described in Example 10. […] Increased ADC values are consistent with the mechanism of action of PEGPH20.

[5] = tested on: PC3 prostate carcinoma cell line; settings: 157,500 Units/kg (about 4.5 mg/kg) IV Q3Dx5; cited from earlier work
[6] = Clinical study (Phase 1-101), musculoskeletal adverse events of PEGPH20
Text: The median age of the patients was age 61 (range 56-86) with tumor types including histiocytoma, colorectal, pancreatic, bladder, carcinoid and ovarian. In all cases, the patients entered the program under pain medication related to their presenting condition but not for study drug-related pain.

[7] = Plasma pharmacokinetics of PEGPH20 (hyaluronidase activity) in patients
Method: Plasma samples were stored frozen, and concentrations of PEGPH20 were determined by measuring hyaluronidase activity using a modified turbidimetric assay as described in Example 4. The USP turbidimetirc method used for the determination of hyaluronidase activity awas based on the formation of an insoluble precipitate that occurs when HA binds with acidified serum. PEGPH20 concentrations were expressed as units of hyaluronidase activity (U/mL) as interpolated from a calibration curve. Activity was reported to the nearest 1 U/mL, and the analytical methods were applicable for measuring plasma hyaluronidase concentrations as low as 0.3125 U/mL.

[8] = all scanned patients of both studies
[9] = single 50 μg/kg dose, individual patients 1 and 2

B1: PEGPH20 (protein)
chain: LNFRAPPVIPNVPFLWAWNAPSEFCLGKFDEPLDMSLFSFIGSPRINATGQGVTIFYVDRLGYYPYIDSITGVTVNGGIPQKISLQDHLDKAKKDITFYMPVDNLGMAVIDWEEWRPTWARNWKPKDVYKNRSIELVQQQNVQLSLTEATEKAKQEFEKAGKDFLVETIKLGKLLRPNHLWGYYLFPDCYNHHYKKPGYNGSCFNVEIKRNDDLSWLWNESTALYPSIYLNTQQSPVAATLYVRNRVREAIRVSKIPDAKSPLPVFAYTRIVFTDQVLKFLSQDELVYTFGETVALGASGIVIWGTLSIMRSMKSCLLLDNYMETILNPYIINVTLAAKMCSQVLCQEQGVCIRKNWNSSDYLHLNPDNFAIQLEKGGKFTVRGKPTLEDLEQFSEKFYCSCYSTLSCKEKADVKDTDAVDVCIADGVCIDAFLKPPMETEEPQIFY
In the case of B1, the “inflammation MAP findings” value [1] is reported as “No notable findings”, the “hyaluronan staining of skeletal muscle” value (tissue HA (hyaluronan); 24 h after Day 59 dose, antibody-positive dogs) is reported as “did not remove extracellular hyaluronan in skeletal muscle samples” and the “hyaluronan staining, post-treatment skeletal muscle and skin” value (tissue HA (hyaluronan); 24 h after first IV dose, PEGPH20 0.3 mg/kg alone, or 0.3 / 1.0 mg/kg + dexamethasone 4 mg BID) is reported as “virtually no hyaluronan staining”. For the same molecule, the plasma hyaluronan [2] was “no detectable (below limit of quantitation) hyaluronan”, the “pericellular hyaluronan staining of tumor sections” value (pericellular hyaluronan) was “almost completely absent” and the plasma hyaluronan [3] was “no detectable (below limit of quantitation) hyaluronan”. The “hyaluronan staining of tumor sections” value (hyaluronan) was “almost completely absent”, the “change in tumor HA by histochemical staining” value [4] was “decrease in pericellular and stromal HA levels” and the “Change in Tumor ADC-MRI from baseline” value (tumor regions; 0.5 μg/kg, 2x/wk, scan D3) was “no change”. The “Change in Tumor ADC-MRI from baseline” value (tumor regions; 0.5 μg/kg, 21 day cycle, individual patients, scan D3 or D4) was “decrease in lymph nodes; also recorded: increase”, the “Change in Tumor ADC-MRI from baseline” value (tumor regions; 0.75 μg/kg, 21 day cycle, individual patients, scan D3 (D30)) was “increase; also recorded: no change” and the “Change in Tumor ADC-MRI from baseline” value (tumor regions; 1.0 μg/kg, 21 day cycle, scan D5) was “increase”. The “Change in Tumor ADC-MRI from baseline” value (tumor regions; 1.5 μg/kg, 21 day cycle, scan D3) was “no change”, the “Change in Tumor ADC-MRI from baseline” value (tumor regions; 50 μg/kg, scan D4) was “no change” and the “patients with ADC values decreased” value (tumor regions; [8]) was 2 of 14. The “patients with ADC values unchanged” value (tumor regions; [8]) was 5 of 14, the “patients with increases in ADC-MRI” value (tumor regions; [8]) was 7 of 14 and the “histopathologic changes of knee joint or skeletal muscle” value (IV twice weekly, 4 weeks) was “no associated histopathologic changes”. For the same molecule, the clinical signs (monkeys administered PEGPH20) was “hypoactivity, lethargy, disorientation, hunched posture and a decrease in limb joint angle”, the “xenograft tumor growth inhibition, previously shown” value [5] was 34-70% and the dose-limiting toxicity ([6]; 0.5 μg/kg IV every 21 days) was “No dose-limiting toxicities”. The “musculoskeletal side effects, severity” value ([6]; 0.5 μg/kg IV every 21 days, three patients) was “intermittent Grade 1 or transient Grade 2”, the dose-limiting toxicity ([6]; 0.5 μg/kg IV twice weekly) was “met dose-limiting toxicity” and the “severity of muscle/joint pain” value ([6]; 0.5 μg/kg IV twice weekly, after 2 doses) was “Grade 3”. For the same molecule, the “musculoskeletal pain leading to discontinuation (summary)” value ([6]; 0.5 μg/kg in a 21 day cycle) was “Grade 3”, the dose-limiting toxicity ([6]; 0.75 μg/kg IV every 21 days, Grade 3 event after first cycle) was “not considered a dose-limiting toxicity” and the “musculoskeletal side effects, severity” value ([6]; 0.75 μg/kg IV every 21 days, cohort and individual patients) was “intermittent Grade 1 or transient Grade 2; also recorded: Grade 1; also recorded: Grade 3; also recorded: Grade 2”. The dose-limiting toxicity ([6]; 1.0 μg/kg IV every 21 days) was “no dose-limiting toxicities”, the “musculoskeletal symptoms, severity” value ([6]; 1.0 μg/kg IV every 21 days, one of three patients) was “Grade 1” and the dose-limiting toxicity ([6]; 1.5 μg/kg IV every 21 days, one patient) was “no dose-limiting toxicities”. For the same molecule, the “musculoskeletal pain leading to discontinuation (summary)” value ([6]; 50.0 μg/kg dose twice weekly, individual patients) was “Grade 4; also recorded: Grade 3”, the duration of pain ([6]; single IV dose 0.05 mg/kg) was “more than 9 days” and the “onset of stiffness and muscle and joint pain after dosing” value ([6]; single IV dose 0.05 mg/kg) was 6 to 10 h. The “severity of muscle/joint pain” value ([6]; single IV dose 0.05 mg/kg, individual patients) was “Grade 3”, the “time course of plasma concentrations” value ([7]; 0.5 μg/kg to 1.5 μg/kg) was “concentrations fell below the limit of quantification (BQL) during the first day” and the “plasma concentrations after dosing” value ([7]; 0.5 μg/kg to 1.5 μg/kg, twelve patients) was ≤ 1.5 U/mL. For the same molecule, the “CL” value [7, 9] was 2.44 mL/h/kg and 3.29 mL/h/kg, the “V1 (mL/kg), volume of the central compartment” value [7, 9] was 57.96 mL/kg and 55.93 mL/kg and the “t1/2α (hr), distribution half-life” value [7, 9] was 4.77 h and 2.47 h. The “plasma enzyme at 72 hours after administration” value ([7]; single IV dose 50 μg/kg) was < 2 U/mL, the “plasma enzyme initially following administration” value ([7]; single IV dose 50 μg/kg) was “approximately 30 U/mL” and the terminal half-life ([7]; single IV dose 50 μg/kg) was “approximately 2 days”. It also gave a plasma half life ([7]; single IV dose 50 μg/kg, two patients) of 28 to 48 h.
